For 1 substance, stoichiometry N results are on record in PMC4597128.

Broadly, the stoichiometry N is the number of molecules, sites or subunits per partner or assembly.

The experiment concerns the target Helicobacter pylori HP0231 (DsbK) (Helicobacter pylori). The experiment in a line: SEC; purified His6-tagged proteins on a calibrated ENrich SEC70 column (Bio-Rad), absorbance at 280 nm; calibrated with Gel Filtration Standard (Bio-Rad). Background: Size exclusion chromatography separates by hydrodynamic size, large species first.

Take “Helicobacter pylori HP0231 (DsbK) (enzyme)”: the stoichiometry N was found to be 2.
